B1: AM2-AAA ADC (antibody, human IgG1, kappa, L234A L235A, DAR 2, V domains shown)
VH: EVQLQESGPGLVKPSQTLSLTCTVSGYSISNDFAWNWIRQPPGKGLEWMGYISYKGNTRYQPSLKSRITISRDTSKNQFFLKLNSVTAADTATYYCVTASRGFPWWGQGTLVTVSS
VL: DIQMTQSPSSMSVSVGDRVTITCHSSQDINSNIGWLQQKPGKSFKGLIYHGTNLDDGVPSRFSGSGSGTDYTLTISSLQPEDFATYYCVQYAQFPWTFGGGTKLEIKR
modifications: AAA synthon (Bcl-xL inhibitor drug-linker) conjugated through C220 of the heavy chain (i.e., C219 of SEQ ID NO: 1); average DAR 2
notes: Antibody-drug conjugate: the AM2 antibody conjugated to the AAA synthon, average DAR 2; The conjugation site (C220) is stated only in the summary and embodiments
B2: AM2 antibody (antibody, human IgG1, kappa, L234A L235A, V domains shown)
VH: B1 VH
VL: B1 VL
notes: Humanized IgG1, z,a allotype, with the LALA mutation (L234A, L235A) and LC:C214A (C6v1); Expressed in HEK293 cells; also called EGFR AM2 antibody

Key:
[1] = biological target: T1, wt EGFR overexpressed on the surface of A431 (A-431, human epidermoid carcinoma) cells (human, UniProt P00533 25-1210); assay: cell-based or functional assay
[2] = biological target: T1, wt EGFR overexpressed on the surface of …; assay: cell-based or functional assay; remark: listed apart in the source
[3] = biological target: mutEGFR on NCI-H1650 (non-small cell lung cancer) cells (human); assay: cell-based or functional assay
[4] = biological target: T2, wild-type EGFR extra-cellular domain (ECD), EGFR (1-645)-LESRGPF-Myc-NMHTG-6His (human, UniProt P00533 25-645); assay: SPR, Biacore T200, ADC captured by anti-Fc, EGFR ECD as analyte
T2 construct: Recombinant soluble ECD secreted from HEK293 cells; also called hEGFR WT; EGFR(h)(1-645); not shown: Myc tag
Procedure: (§1) Binding kinetics for AM2 and AM2-AAA for recombinant soluble EGFR extracellular domains (ECDs) were determined by surface plasmon resonance-based measurements made on a Biacore T200 instrument (GE Healthcare) at 25° C. using an anti-Fc capture assay approach. Recombinant soluble ECDs for the three isoforms of EGFR were expressed from transiently transfected HEK293 cells as secreted proteins with a C-terminal myc and histidine tag, and purified by Ni-IMAC (immobilized metal affinity chromatography) and SEC. […]
(§2) Chip preparation and binding kinetic measurements were made in the assay buffer HBS-EP+ (10 mM Hepes, pH 7.4, 150 mM NaCl, 3 mM EDTA, 0.05% Tween 20). […] For binding kinetics measurements each assay cycle consisted of the following steps: (1) capture of test antibody on test surface only; (2) analyte injection (EGFR ECD or buffer only) over both reference and test surface (240 μL at 80 μl/min), after which the dissociation was monitored for 900 seconds at 80 μl/min; (3) regeneration of the capture surface by 10 mM Glycine-HCl, pH 1.5 injections over both reference and test surface. […]

[5] = biological target: T3, EGFRvIII (hEGFR de2-7) [EGFR(H)(1-29)-G-(298-645)], EGFR(h)(1-29)-G-(298-645)-LESRGPF-Myc-NMHTG-6His (human, UniProt P00533 298-645); assay: SPR, Biacore T200, 25 C, anti-Fc capture of ADC, EGFR ECD as analyte, 1:1 model
T3 construct: Recombinant soluble ECD secreted from HEK293 cells; not shown: Myc tag
Procedure: (§3) Binding kinetics for AM2 and AM2-AAA for recombinant soluble EGFR extracellular domains (ECDs) were determined by surface plasmon resonance-based measurements made on a Biacore T200 instrument (GE Healthcare) at 25° C. using an anti-Fc capture assay approach. Recombinant soluble ECDs for the three isoforms of EGFR were expressed from transiently transfected HEK293 cells as secreted proteins with a C-terminal myc and histidine tag, and purified by Ni-IMAC (immobilized metal affinity chromatography) and SEC. In particular, the EGFR ECD tested included amino acids 1-645 of EGFR fused to a myc and histidine tag [(EGFR (1-645)-LESRGPF-Myc-NMHTG-6His (“LESRGPF” (SEQ ID NO: 27))]. The EGFRvIII variant was also fused to a myc and histidine tag (EGFR(h)(1-29)-G-(298-645)-LESRGPF-Myc-NMHTG-6His), as was the ECD EGFR 1-525 [EGFR1(h)(1-525)]-LESRGPF-Myc-NMHTG-6His (“LESRGPF” (SEQ ID NO: 28))]. All ECDs were expressed with the signal sequence […] which was cleaved during secretion.
(§4) Chip preparation and binding kinetic measurements were made in the assay buffer HBS-EP+ (10 mM Hepes, pH 7.4, 150 mM NaCl, 3 mM EDTA, 0.05% Tween 20). For anti-Fc capture chip preparation, approximately 2000 RU of goat anti-human IgG Fc polyclonal antibody (Thermo Fisher Scientific Inc., cat. 31125), diluted to 25 μg/mL in 10 mM sodium acetate (pH 4.5) was directly immobilized across a CM5 biosensor chip using a standard amine coupling kit according to manufacturer's instructions and procedures (GE Healthcare). Unreacted moieties on the biosensor surface were blocked with ethanolamine. For binding kinetics measurements each assay cycle consisted of the following steps: (1) capture of test antibody on test surface only; (2) analyte injection (EGFR ECD or buffer only) over both reference and test surface (240 μL at 80 μl/min), after which the dissociation was monitored for 900 seconds at 80 μl/min; (3) regeneration of the capture surface by 10 mM Glycine-HCl, pH 1.5 injections over both reference and test surface.
(§5) For kinetic determinations, analytes were randomized 3-fold dilution series from 3 uM top dose. During the assay, all measurements were referenced against the capture surface alone (i.e., with no captured test antibody) and buffer-only injections were used for secondary referencing.

[6] = biological target: T4, truncated wild-type EGFR 1-525, [EGFR1(h)(1-525)]-LESRGPF-Myc-NMHTG-6His (human, UniProt P00533 25-525); assay: as above
T4 construct: Recombinant soluble truncated ECD secreted from HEK293 cells; also called EGFRs1-501; ECD EGFR 1-525; not shown: Myc tag
Procedure: as §3, §4, §5

[7] = biological target: T1, wt EGFR overexpressed on the surface of …; assay: FACS on A-431 cells, 1 h at 4 C, AlexaFluor 488 secondary antibody, geometric mean fluorescence
Procedure: To assay binding of AM2-AAA to cell surface overexpressed wt EGFR and to mutant forms of EGFR including the activating mutations found in NSCLC (mutEGFR), tumor cells overexpressing wt EGFR (A431) and mutEGFR (NCI-H1650) were assessed by fluorescence activated cell sorting (FACS).
Cells were harvested from flasks when at approximately 1.5×10⁶ cells/mL. Cells were washed once in PBS/1% FBS (FACS buffer) then resuspended at 2.5×10⁶ cells/mL in FACS buffer. 50 μL of cells were added to a round bottom 96-well plate. 50 μL of a 2× concentration of mAb/ADC (final concentrations are indicated in the figures) was added to wells and the plate was incubated at 4° C. for one hour. The cells were washed twice in FACS buffer and resuspended in 50 μL of a 1:100 dilution of secondary Ab (AlexaFluor 488, Invitrogen, 11013) diluted in FACS buffer. The plate was incubated at 4° C. for one hour and washed twice with FACS buffer. Cells were resuspended in 100 μL of PBS/1% formaldehyde and analyzed on a Becton Dickinson FACSCanto II flow cytometer. Data was analyzed using WinList flow cytometry analysis software.

[8] = biological target: T2, wild-type EGFR extra-cellular domain …; assay: SPR, Biacore T200, antibody captured by anti-Fc, EGFR ECD as analyte
Procedure: as §1, §2

[9] = biological target: T3, EGFRvIII (hEGFR de2-7) …; assay: SPR, Biacore T200, 25 C, anti-Fc capture of antibody, EGFR ECD as analyte, 1:1 model
Procedure: as §3, §4, §5

[10] = biological target: T4, truncated wild-type EGFR 1-525, …; assay: as above
Procedure: as §3, §4, §5

Row | Binder | IC50 (read off the curve), % Bim bound to BCL-xl in A-431 cells [1] [nM] | EC50 (read off the curve), caspase 3/7 activity fold change in A431 cells [2] [nM] | IC50 (read off the curve), % Bim bound to BCL-xl in NCI-H1650 cells [3] [nM] | binding result [4] | Kd [5] [nM] | koff [5] [s⁻¹] | kon [5] [M⁻¹ s⁻¹] | Kd [6] [nM] | koff [6] [s⁻¹] | kon [6] [M⁻¹ s⁻¹] | EC50 (read off the curve) [7] [nM] | binding result [8] | Kd [9] [nM] | koff [9] [s⁻¹] | kon [9] [M⁻¹ s⁻¹] | Kd [10] [nM] | koff [10] [s⁻¹] | kon [10] [M⁻¹ s⁻¹]
1 | B1 | ~3 | ~7 | ~20 | no binding (tested: 3 µM top dose) | 4.9 | 0.00017 | 35000 | 400 | 0.0012 | 2900 | ~100 | – | – | – | – | – | – | –
2 | B2 | – | – | – | – | – | – | – | – | – | – | ~80 | no binding (tested: 3 µM top dose) | 5 | 0.00017 | 33000 | 420 | 0.0012 | 2800

From patent publication US20250170263A1 (AbbVie / Abbott, published 2025)
